Values of other authors, collected in publication PMC13428679.

What was measured:
[1] = molecular target: Skp1 (Dictyostelium discoideum) (UniProt P52285)
[2] = molecular target: Fbs1 (Cavia porcellus)
Fbs1 (Cavia porcellus), sequence (Q80UW2 whole entry): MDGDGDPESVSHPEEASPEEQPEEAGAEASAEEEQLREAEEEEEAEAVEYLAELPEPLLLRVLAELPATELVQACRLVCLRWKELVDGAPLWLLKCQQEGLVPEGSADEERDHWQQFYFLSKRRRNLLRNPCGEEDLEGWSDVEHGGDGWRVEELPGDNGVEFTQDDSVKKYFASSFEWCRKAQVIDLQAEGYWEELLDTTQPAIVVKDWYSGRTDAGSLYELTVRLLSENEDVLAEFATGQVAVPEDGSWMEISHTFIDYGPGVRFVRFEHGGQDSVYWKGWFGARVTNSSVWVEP

Q: For Skp1 (from UniProt P52285), which Kd [1] is on record?
A: The Kd was 2.5 µM.

Q: With Skp1 (from UniProt P63208) as the substance, how does the Kd [2] read?
A: Its Kd is 25 µM.
